Experimental findings from paper PMC8373891 are described below.

The test deals with T1, IFNAR1/IFNAR2 receptor (human (endogenous in HEK293)) (UniProt P17181).
T1 sequence 1: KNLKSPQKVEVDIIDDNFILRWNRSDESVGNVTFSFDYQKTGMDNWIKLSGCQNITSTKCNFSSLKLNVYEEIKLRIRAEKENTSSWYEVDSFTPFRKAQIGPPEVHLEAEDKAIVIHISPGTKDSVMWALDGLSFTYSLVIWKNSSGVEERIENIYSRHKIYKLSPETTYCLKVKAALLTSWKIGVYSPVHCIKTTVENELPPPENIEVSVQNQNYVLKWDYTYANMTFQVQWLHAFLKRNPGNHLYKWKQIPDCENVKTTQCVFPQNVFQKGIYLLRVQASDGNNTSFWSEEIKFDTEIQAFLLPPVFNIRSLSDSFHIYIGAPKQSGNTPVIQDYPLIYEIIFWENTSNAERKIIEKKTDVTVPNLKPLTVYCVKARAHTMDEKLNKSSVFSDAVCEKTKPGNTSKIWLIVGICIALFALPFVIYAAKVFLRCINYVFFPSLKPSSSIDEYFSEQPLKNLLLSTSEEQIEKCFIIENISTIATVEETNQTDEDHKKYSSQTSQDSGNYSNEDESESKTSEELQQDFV
T1 sequence 2: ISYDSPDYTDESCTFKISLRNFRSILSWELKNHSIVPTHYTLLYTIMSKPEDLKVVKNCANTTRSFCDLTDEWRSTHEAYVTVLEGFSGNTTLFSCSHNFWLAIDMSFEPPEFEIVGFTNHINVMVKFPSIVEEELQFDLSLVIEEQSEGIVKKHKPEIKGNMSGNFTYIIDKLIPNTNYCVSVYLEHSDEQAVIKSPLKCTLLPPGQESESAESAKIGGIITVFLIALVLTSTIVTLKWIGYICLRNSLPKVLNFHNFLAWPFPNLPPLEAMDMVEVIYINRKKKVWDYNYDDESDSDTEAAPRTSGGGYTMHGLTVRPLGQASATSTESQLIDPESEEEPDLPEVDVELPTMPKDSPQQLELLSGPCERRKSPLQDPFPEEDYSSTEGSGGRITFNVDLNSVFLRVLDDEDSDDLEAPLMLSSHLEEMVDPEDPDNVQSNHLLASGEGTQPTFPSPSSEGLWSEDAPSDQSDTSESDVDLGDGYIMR

B1: IFNα-10 (ligand)
chain: CDLPQTHSLGNRRALILLGQMGRISPFSCLKDRHDFRIPQEEFDGNQFQKAQAISVLHEMIQQTFNLFSTEDSSAAWEQSLLEKFSTELYQQLNDLEACVIQEVGVEETPLMNEDSILAVRKYFQRITLYLIERKYSPCAWEVVRAEIMRSLSFSTNLQKRLRRKD
With B1, the EC50 of ISG54-driven secreted embryonic alkaline phosphatase in the HEK293 (HEK-BLUE IFN-αβ) reporter cell line, dose response, 24 h is 0.3 nM.

B2: IFNα-7 (ligand)
chain: CDLPQTHSLRNRRALILLAQMGRISPFSCLKDRHEFRFPEEEFDGHQFQKTQAISVLHEMIQQTFNLFSTEDSSAAWEQSLLEKFSTELYQQLNDLEACVIQEVGVEETPLMNEDFILAVRKYFQRITLYLMEKKYSPCAWEVVRAEIMRSFSFSTNLKKGLRRKD
As for B2, the EC50 of ISG54-driven secreted embryonic alkaline phosphatase in the HEK293 (HEK-BLUE IFN-αβ) reporter cell line, dose response, 24 h came out at 3.3 nM.
